Reference: patent US20220064331A1 (Genentech, published 2022)
One block for each binder: values may come before it.

Experiments:
[1] = target: T1, FGFR1b (human, UniProt P11362-19 22-376, limits assumed); assay: SPR (BIACORE T100), antibody captured by anti-human Fc on a CM5 chip, FGFR1 ECD protein injected, 25 °C, 1:1 Langmuir fit
T1 construct: soluble protein in SPR and ELISA, whole receptor on L6 cells in the luciferase assay
T1 sequence (looked up): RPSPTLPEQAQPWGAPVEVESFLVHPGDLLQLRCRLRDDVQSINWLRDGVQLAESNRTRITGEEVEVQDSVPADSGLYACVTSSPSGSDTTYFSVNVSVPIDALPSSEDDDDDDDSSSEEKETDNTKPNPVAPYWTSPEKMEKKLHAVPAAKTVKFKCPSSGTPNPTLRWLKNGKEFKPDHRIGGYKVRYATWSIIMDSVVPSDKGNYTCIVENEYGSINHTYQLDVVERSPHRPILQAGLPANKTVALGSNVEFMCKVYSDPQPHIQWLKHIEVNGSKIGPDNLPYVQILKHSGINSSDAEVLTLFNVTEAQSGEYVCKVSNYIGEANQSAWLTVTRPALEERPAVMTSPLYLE

[2] = target: T2, human KLB / human FGFR1c complex on cells (human, UniProt Q86Z14 53-1044; P11362 22-822); assay: radiolabeled ligand competition binding (iodinated FGF21) on HEK293 cells expressing human FGFR1c and human KLB
T2 construct: both receptors co-expressed on HEK293 (or L6) cells; also called FGFR1c/KLB complex; 293huKLB/huR1c
Experimental: For the radioligand cell binding assay, HEK293 cells that stably co-expressing KLB and/or FGFR1c were placed into 96-well plate at a density of 100,000 to 200,000 cells per 0.2 mL in binding buffer (DMEM with 1% bovine serum albumin (BSA), 50 mM HEPES, pH 7.2, 0.1% sodium azide and 350 mM human IgG). […] Competition reactions with cells were incubated for 2 h at room temperature.

[3] = target: T2, human KLB / human FGFR1c complex on …; assay: cell-based or functional assay

Kd [1]: 1.13 nM | koff [1]: 0.0022 s⁻¹ | kon [1]: 1.9e+06 M⁻¹ s⁻¹
B1: YW182.2 (antibody, V domains shown)
VH: EVQLVESGGGLVQPGGSLRLSCAASGFTFTSTWISWVRQAPGKGLEWVGEIDPYDGDTYYADSVKGRFTISADTSKNTAYLQMNSLRAEDTAVYYCATEHFDAWVHYYVMDYWGQGTLVTVSS
VL: DIQMTQSPSSLSASVGDRVTITCRASQDVSTAVAWYQQKPGKAPKLLIYSASFLYSGVPSRFSGSGSGTDFTLTISSLQPEDFATYYCQQSYTTPPTFGQGTKVEIK

Kd [2]: 5.3 nM | EC50 in GAL-ELK1 assay in HEK293 cells [3]: 4.7 nM
B2: hFGF21 (ligand, human, UniProt Q9NSA1 29-209, looked up)
chain: HPIPDSSPLLQFGGQVRQRYLYTDDAQQTEAHLEIREDGTVGGAADQSPESLLQLKALKPGVIQILGVKTSRFLCQRPDGALYGSLHFDPEACSFRELLLEDGYNVYQSEAHGLPLHLPGNKSPHRDPAPRGPARFLPLPGLPPALPEPPGILAPQPPDVGSSDPLSMVGPSQGRSPSYAS
notes: also called recombinant FGF21
